Source: US20170021001A1
Each block holds one binder with its values, some of them ahead of it.

Biological target: TCRs of Du51-specific CD8^+CD45RC^low Tregs (CD8^+CD40Ig Tregs) (rat)
Experiment: cell-based or functional assay

- CD25 upregulation on CD8^+CD40Ig Tregs, fold vs. no peptide (fold vs. no peptide): 2.04
B1: peptide 51-18 (…) (peptide)
peptide: REEYARFDSDVGEYR

- CD25 expression at the cell surface of CD8^+CD40Ig Tregs, fold vs. no peptide (6 days coculture with matured syngeneic pDCs) (fold vs. no peptide): 1.67
B2: peptide Bu31 (…) (peptide)
peptide: YLRYDSDVGEYRAVTE

- CD25 expression at the cell surface of CD8^+CD40Ig Tregs, fold vs. no peptide (6 days coculture with matured syngeneic pDCs) (fold vs. no peptide): 2.07
B3: peptide Du51 (…) (peptide)
peptide: NREEYARFDSDVGEYR
